Measurements reported in publication PMC4605308 (Nucleic Acids Research, 2015).

Target: T1, hexahistidine-tagged ubiquitin (the ubiquitin part of the Rad6^iso∼Ub conjugate) (human, UniProt P0CG48 1-76, C-terminus linked to K88 of Rad6 C88K via an isopeptide linkage)
T1 construct: ubiquitin, human; The final model holds two additional N-terminal residues from the plasmid vector; also called His6-Ub; Ub-His6; source: in the crystal conjugated to Rad6^C88K
Assay: crystal structure; Rad6^iso∼Ub conjugate; sitting drop vapor diffusion at 20°C, 24% PEG 300, 50 mM sodium acetate, pH 5.4; one conjugate in the asymmetric unit, contacts between conjugates in the crystal
Details: both partners purified

B1: Rad6 C88K (the Rad6 part of the Rad6^iso∼Ub conjugate) (enzyme, Saccharomyces cerevisiae, UniProt P06104 1-172, looked up)
chain: MSTPARRRLMRDFKRMKEDAPPGVSASPLPDNVMVWNAMIIGPADTPYEDGTFRLLLEFDEEYPNKPPHVKFLSEMFHPNVYANGEIKLDILQNRWTPTYDVASILTSIQSLFNDPNPASPANVEAATLFKDHKSQYVKRVKETVEKSWEDDMDDMDDDDDDDDDDDDDEAD
modifications: lysine at position 88 linked to the ubiquitin C-terminus via an isopeptide linkage
notes: Rad6, Saccharomyces cerevisiae, with C88K; Written on its own for the non-covalent contact between Rad6 of one conjugate and ubiquitin of another in the crystal; source: E. coli Rosetta2 DE3 pLysS, purified; in the crystal conjugated to His6-Ub; not shown: MBP, N-terminal, cleaved; His6, N-terminal, cleaved
B1: binds.
